Target: mHTT-HAP40 Q54 (expanded mutant huntingtin with HAP40) (UniProt P42858;P23610 1-38+=QQQQQQQQQQQQQQQQQQQQQQQQQQQQQQQQQ+39-3142;1-371, internal_change)
Experiment: fluorescence polarization (method implied); 20 mM Hepes pH 7.4, 50 mM KCl, 2 mM MgCl2, 1 mM TCEP, 2.5% glycerol, 0.005% Tween 20; SPR 20 C, EMSA on ice, FP 10 min (temperature not stated)
Settings: protein: recombinant; copies: 1;1; label: 5'-FAM (FP, EMSA); biotin (SPR)

Chain of mHTT-HAP40 Q54 (expanded mutant huntingtin with HAP40) (P42858 other isoform, or with tags, fused parts or gaps | mutant, chain 1 of 2): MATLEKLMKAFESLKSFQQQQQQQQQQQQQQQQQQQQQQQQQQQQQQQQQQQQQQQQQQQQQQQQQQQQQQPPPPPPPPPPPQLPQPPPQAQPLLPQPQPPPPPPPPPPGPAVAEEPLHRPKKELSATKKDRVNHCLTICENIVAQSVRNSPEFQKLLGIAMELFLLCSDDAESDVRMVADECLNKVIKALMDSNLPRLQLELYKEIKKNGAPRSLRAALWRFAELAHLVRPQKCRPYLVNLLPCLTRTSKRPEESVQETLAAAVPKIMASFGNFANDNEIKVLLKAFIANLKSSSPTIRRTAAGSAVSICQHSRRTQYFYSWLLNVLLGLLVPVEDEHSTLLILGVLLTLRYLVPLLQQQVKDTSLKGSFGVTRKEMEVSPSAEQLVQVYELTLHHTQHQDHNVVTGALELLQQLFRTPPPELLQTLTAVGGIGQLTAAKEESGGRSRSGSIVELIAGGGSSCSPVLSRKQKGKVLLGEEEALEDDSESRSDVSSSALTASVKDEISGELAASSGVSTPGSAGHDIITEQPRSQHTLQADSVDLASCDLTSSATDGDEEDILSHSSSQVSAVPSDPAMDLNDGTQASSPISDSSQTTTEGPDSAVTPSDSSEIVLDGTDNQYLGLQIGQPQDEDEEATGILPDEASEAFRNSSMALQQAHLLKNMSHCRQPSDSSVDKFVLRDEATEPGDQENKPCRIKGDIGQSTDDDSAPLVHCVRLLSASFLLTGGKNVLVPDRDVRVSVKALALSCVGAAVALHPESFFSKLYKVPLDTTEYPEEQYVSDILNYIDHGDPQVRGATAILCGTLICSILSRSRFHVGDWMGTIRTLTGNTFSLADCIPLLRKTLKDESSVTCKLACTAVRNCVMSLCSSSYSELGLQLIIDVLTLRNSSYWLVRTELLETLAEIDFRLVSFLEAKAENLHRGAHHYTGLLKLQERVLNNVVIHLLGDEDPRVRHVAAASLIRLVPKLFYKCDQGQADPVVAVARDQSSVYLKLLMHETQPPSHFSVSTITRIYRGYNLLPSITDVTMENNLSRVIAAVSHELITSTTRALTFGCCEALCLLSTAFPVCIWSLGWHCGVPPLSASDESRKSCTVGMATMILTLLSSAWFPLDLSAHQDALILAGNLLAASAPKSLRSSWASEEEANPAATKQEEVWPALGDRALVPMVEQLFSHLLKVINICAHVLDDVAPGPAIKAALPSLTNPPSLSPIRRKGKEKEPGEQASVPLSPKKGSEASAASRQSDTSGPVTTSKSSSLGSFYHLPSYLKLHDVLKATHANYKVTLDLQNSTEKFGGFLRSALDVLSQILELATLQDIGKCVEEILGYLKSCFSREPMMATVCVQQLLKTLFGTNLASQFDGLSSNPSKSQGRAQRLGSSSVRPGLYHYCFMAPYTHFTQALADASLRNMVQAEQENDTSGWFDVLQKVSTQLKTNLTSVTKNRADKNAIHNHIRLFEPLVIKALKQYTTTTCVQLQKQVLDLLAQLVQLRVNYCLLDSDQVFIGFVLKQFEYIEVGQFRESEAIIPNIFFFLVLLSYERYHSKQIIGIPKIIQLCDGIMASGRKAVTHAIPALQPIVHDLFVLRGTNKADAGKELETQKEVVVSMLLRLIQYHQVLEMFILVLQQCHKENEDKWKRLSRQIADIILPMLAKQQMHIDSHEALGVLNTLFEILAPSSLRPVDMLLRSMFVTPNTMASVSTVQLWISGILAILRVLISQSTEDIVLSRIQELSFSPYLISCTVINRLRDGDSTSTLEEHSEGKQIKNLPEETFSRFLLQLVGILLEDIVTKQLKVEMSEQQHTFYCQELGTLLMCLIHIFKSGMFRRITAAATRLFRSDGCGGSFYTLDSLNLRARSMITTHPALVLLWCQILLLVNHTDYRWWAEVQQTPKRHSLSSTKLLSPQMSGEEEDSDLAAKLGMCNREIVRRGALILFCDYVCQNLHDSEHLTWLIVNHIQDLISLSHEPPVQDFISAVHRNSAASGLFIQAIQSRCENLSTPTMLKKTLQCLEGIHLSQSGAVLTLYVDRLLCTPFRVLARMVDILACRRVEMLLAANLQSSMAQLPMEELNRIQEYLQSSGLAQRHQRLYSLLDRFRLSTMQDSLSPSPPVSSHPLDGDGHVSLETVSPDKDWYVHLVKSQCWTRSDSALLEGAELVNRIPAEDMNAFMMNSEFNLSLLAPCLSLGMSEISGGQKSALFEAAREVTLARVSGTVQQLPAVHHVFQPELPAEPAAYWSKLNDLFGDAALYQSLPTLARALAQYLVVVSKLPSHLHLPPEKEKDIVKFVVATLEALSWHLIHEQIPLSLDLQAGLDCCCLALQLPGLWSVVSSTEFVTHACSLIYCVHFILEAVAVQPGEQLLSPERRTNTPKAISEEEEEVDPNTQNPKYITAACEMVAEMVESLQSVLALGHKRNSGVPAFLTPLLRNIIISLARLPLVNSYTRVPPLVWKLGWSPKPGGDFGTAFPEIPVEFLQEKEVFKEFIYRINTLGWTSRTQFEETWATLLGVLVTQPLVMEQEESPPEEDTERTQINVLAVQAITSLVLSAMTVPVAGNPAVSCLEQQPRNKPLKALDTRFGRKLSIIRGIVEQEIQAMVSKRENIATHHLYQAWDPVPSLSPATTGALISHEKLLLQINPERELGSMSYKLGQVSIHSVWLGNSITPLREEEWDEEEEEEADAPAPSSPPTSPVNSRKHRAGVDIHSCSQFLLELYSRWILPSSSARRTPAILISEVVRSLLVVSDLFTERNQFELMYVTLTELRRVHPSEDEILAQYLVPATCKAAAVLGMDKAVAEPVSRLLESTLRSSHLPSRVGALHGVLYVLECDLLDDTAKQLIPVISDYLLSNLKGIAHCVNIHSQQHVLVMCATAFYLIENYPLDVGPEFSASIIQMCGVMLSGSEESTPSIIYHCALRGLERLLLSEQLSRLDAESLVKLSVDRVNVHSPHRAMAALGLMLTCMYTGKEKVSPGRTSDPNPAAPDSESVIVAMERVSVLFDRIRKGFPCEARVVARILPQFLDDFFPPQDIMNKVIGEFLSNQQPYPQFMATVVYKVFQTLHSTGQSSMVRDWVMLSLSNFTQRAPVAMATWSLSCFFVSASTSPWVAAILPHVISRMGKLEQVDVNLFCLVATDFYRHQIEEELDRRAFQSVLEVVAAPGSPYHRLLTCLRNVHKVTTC
Chain of mHTT-HAP40 Q54 (expanded mutant huntingtin with HAP40) (P23610 whole entry, change not shown, chain 2 of 2): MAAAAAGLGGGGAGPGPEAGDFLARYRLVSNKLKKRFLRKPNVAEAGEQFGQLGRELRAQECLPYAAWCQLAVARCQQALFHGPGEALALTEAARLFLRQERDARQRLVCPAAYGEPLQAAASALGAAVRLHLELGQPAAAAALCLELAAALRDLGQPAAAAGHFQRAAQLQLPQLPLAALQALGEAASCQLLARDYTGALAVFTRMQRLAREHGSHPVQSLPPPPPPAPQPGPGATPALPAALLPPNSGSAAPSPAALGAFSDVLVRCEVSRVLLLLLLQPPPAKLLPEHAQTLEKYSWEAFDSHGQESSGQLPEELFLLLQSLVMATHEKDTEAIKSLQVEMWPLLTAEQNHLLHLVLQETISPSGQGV

B1: 100-mer random ssRNA (ssRNA)
RNA: CACGUAUGAGAAGGUAUUUGCCCGAUAAUCAAUACCCCAGGCUUCUAACUUUUUCCACUCGCUUGAGCCGGCUAGGCCUUUCUGCCCGAAGUUUCGAUGG
  Kd: 500 ± 300 nM

— paper PMC11259171, “Huntingtin is an RNA binding protein and participates in NEAT1-mediated paraspeckles”
